Assays:
[1] = DMPC liposome clearance by lipid-free apolipoproteins (A325); assay type: biochemical; conditions: lipid-free apolipoprotein, protein:lipid 1:75, A325 over 90 minutes
Experimental: To assess the ability of lipid-free apolipoproteins to remodel DMPC liposomes, aliquots of purified polypeptide were allowed to thaw at 2-8° C. Aqueous 0.5 M tris(2-carboxyethyl)phosphine (TCEP) solution was then added to the polypeptide solution (1.5 μL per 200 μg polypeptide) to reduce any disulfide bonds that formed during storage. After incubation for >30 minutes at 2-8° C., the mixture was buffer exchanged into PBS (2 mM KH2PO4, 10 mM Na2HPO4, 140 mM NaCl, 3 mM KCl, pH 7.4) using a spin desalting column (ThermoFisher) following the manufacturer's instructions. After buffer exchange, the concentration of the polypeptide was determined by measuring the sample's absorbance at 280 nm (A280). In parallel, a mixture of DMPC (1,2-dimyristoyl-sn-glycero-3-phosphocholine) in detergent-free lipid buffer (20 mM Tris HCl, 100 mM NaCl, pH 7.4) was prepared from neat DMPC powder and adjusted to about 10 mM.
The polypeptide and DMPC solutions were combined in technical duplicate or triplicate in a UV-transparent 96-well plate (Corning) such that the molar ratio of protein:lipid was 1:75. The absorbance of the wells at 325 nm was measured every minute for 90 minutes.
Polypeptides PP124 (SEQ ID NO: 876), PP125 (SEQ ID NO: 877), PP126 (SEQ ID NO: 878), PP127 (SEQ ID NO: 879), PP128 (SEQ ID NO: 880), and PP129 (SEQ ID NO: 881) were expressed, harvested, and purified using the methods described herein (see, e.g., Example 1). The ability of these novel apolipoprotein variants to interact with and remodel DMPC liposomes was assessed to serve as a simplified proxy of the disc assembly process. The rate at which apolipoproteins achieve such remodeling is related to the facility with which they form the lipoprotein systems described in the present invention.

[2] = molecular target: human low-density lipoprotein receptor (LDLR) protein (human, UniProt P01130 22-788, limits assumed); experiment: SPR (Biacore 4000), human LDLR captured on a Protein A chip, lipoprotein as analyte, 1:1 model fit
Experimental: (§1) A surface plasmon resonance (SPR) method was developed to assess the binding response between the lipoprotein samples and the low-density lipoprotein receptor (LDLR). This interaction is relevant to the discs because the LDLR/APOE pathway plays a pivotal role in cholesterol homeostasis and lipid metabolism. Experiments were performed on a Biacore 4000 with human LDLR protein captured on a Protein A chip. For the binding studies, lipoprotein samples were diluted and tested in a 3-fold dilution series. Samples were injected for 2-3 minutes at 30 μL/min and the dissociation phase was monitored for 5-10 minutes. Response data were processed by subtracting the data from a reference surface (i.e., without receptor captured) and a buffer injection. The processed data were globally fit to a 1:1 interaction model to extract estimates of the binding constants.
Target sequence in this assay (P01130 22-788 limits assumed): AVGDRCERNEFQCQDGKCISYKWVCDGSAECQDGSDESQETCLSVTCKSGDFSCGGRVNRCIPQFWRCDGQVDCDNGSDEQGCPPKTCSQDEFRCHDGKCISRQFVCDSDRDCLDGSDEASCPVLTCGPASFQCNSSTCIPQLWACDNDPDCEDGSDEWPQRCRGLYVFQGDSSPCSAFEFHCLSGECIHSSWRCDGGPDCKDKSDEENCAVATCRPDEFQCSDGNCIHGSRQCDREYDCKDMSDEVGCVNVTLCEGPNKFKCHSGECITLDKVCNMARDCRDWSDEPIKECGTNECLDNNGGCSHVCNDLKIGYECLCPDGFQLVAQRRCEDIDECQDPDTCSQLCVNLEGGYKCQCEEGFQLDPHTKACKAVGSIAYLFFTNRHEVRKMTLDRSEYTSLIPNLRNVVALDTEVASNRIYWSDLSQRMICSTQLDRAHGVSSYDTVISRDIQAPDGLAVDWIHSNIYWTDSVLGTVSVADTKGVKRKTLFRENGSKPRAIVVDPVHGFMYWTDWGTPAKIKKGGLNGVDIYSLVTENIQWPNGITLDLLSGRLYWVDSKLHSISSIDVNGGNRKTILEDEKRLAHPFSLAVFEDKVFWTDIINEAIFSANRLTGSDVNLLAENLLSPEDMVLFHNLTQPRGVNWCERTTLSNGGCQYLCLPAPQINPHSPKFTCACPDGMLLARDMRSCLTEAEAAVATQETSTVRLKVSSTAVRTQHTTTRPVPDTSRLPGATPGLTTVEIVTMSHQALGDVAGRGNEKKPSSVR

[3] = molecular target: T1, human low-density lipoprotein receptor (LDLR) protein (human, UniProt P01130 22-788, limits assumed); experiment: SPR (Biacore 4000), human LDLR captured on Protein A chip
T1 construct: The receptor was captured on a Protein A chip in the SPR assay
Experimental: as §1
T1 sequence (P01130 22-788 limits assumed): as above

[4] = system: experimental models of stroke, global brain ischemia, prion diseases, AD, PD, HD, ALS; conditions: intracerebral administration; cited from earlier work

With “PP1: natural human APOE isoform APOE2; SEQ ID NO: 267, 268 in b698” the “Rate of DMPC clearance Ka” value [1] was 0.0032 s⁻¹.

For “PP2: natural human APOE isoform APOE 3; SEQ ID NO: 268, 267 in b698”, the “Rate of DMPC clearance Ka” value [1] was 0.0145 s⁻¹.

B1: LPS1: lipoprotein system of PP9 and POPC, apolipoprotein:lipid 1:105 (other)
chain: KVEQAVETEPEPELRQQTEWQSGQRWELALGRFWDYLRWVQTLSEQVQEELLSSQVTQELRALMDETMKELKAYKSELEEQLTPVAEETRARLSKELQAAQARLGADMEDVCGRLVQYRGEVQAMLGQSTEELRVRLASHLRKLRKRLLRDADDLQKRLAVYQAGAREGAERGLSAIRERLGPLVEQGRVRAATVGSLAGQPLQERAQAWGERLRARMEEMGSRTRDRLDEVKEQVAAKLEEQAQQIRLQAEAFQARLKPLVEDMQRQWAGLVEKVQAAVGTSAAPVPSDNH
notes: Discoidal lipoprotein particle with POPC; Engineered truncation variant of APOE3; also called PP9/POPC
B1 gave a Kd [2] of roughly 0.33 nM.

B2: LPS1 lipoprotein system (PP9 with POPC, polypeptide:lipid 1:105) (other)
chain: KVEQAVETEPEPELRQQTEWQSGQRWELALGRFWDYLRWVQTLSEQVQEELLSSQVTQELRALMDETMKELKAYKSELEEQLTPVAEETRARLSKELQAAQARLGADMEDVCGRLVQYRGEVQAMLGQSTEELRVRLASHLRKLRKRLLRDADDLQKRLAVYQAGAREGAERGLSAIRERLGPLVEQGRVRAATVGSLAGQPLQERAQAWGERLRARMEEMGSRTRDRLDEVKEQVAAKLEEQAQQIRLQAEAFQARLKPLVEDMQRQWAGLVEKVQAAVGTSAAPVPSDNH
notes: Discoidal lipoprotein particle with POPC at 1:105 mol/mol; also called PP9/POPC
For B2, the “fold difference in KD compared to POPC lipoproteins with PP2 or PP28” value (shortened to “fold difference in KD”) [3] was no more than 5 fold.

B3: PP124: novel truncated apolipoprotein variant SEQ ID NO: 876 (protein)
chain: KVEQAVETEPEPELRQQTEWQSGQRWELALGRFWDYLRWVQTLSEQVQEELLSSQVTQELRALMDETMKELKAYKSELEEQLTPVAEETRARLSKELQAAQARLGADMEDVCGRLVQYRGEVQAMLGQSTEELRVRLASHLRKLRKRLLRDADDLQKRLAVYQAGAREGAERGLSAIRERLGPLVEQGRVRAATVGSLAGQPLQERAQAWGERLRARMEEMGSRTRDRLDEVKEQEAAKLEEQAQQIRLQAEAFQARLKPLVEDMQRQWAGLVEKVQAAVGTSAAPVPSDNH
In the case of B3, the “Rate of DMPC clearance Ka” value [1] is reported as 0.0221 s⁻¹.

B4: PP125: novel truncated apolipoprotein variant SEQ ID NO: 877 (protein)
chain: KVEQAVETEPEPELRQQTEWQSGQRWELALGRFWDYLRWVQTLSEQVQEELLSSQVTQELRALMDETMKELKAYKSELEEQLTPVAEETRARLSKELQAAQARLGADMEDVCGRLVQYRGEVQAMLGQSTEELRVSLASHLRKLRKRLLRDADDLQKRLAVYQAGAREGAERGLSAIRERLGPLVEQGRVRAATVGSLAGQPLQERAQAWGERLRARMEEMGSRTRDRLDEVKEQEAAKLEEQAQQIRLQAEAFQARLKPLVEDMQRQWAGLVEKVQAAVGTSAAPVPSDNH
In the case of B4, the “Rate of DMPC clearance Ka” value [1] is reported as 0.0247 s⁻¹.

B5: BDNF: brain-derived neurotrophic factor, a neurotherapeutic growth factor (protein, UniProt P23560 19-247, looked up)
Neurotrophic factor BDNF …: APMKEANIRGQGGLAYPGVRTHGTLESVNGPKAGSRGLTSLADTFEHVIEELLDEDQKVRPNEENNKDADLYTSRVMLSSQVPLEPPLLFLLEEYKNYLDAANMSMRVRRHSDPARRGELSVCDSISEWVTAADKKTAVDMSGGTVTVLEKVPVSKGQLKQYFYETKCNPMGYTKEGCRGIDKRHWNSQCRTTQSYVRALTMDSKKRIGWRFIRIDTSCVCTLTIKRGR
In the case of B5, the neuroprotection [4] is listed as “neuroprotective”.

B6: LPS3: lipoprotein system of PP11 and POPC, apolipoprotein:lipid 1:90 (other)
chain: KVEQAVETEPEPELRQQTEWQSGQRWELALGRFWDYLRWVQTLSEQVQEELLSSQVTQELRALMDETMKELKAYKSELEEQLTPVAEETRARLSKELQAAQARLGADMEDVCGRLVQYRGEVQAMLGQSTEELRVRLASHLRKLRKRLLRDADDLQKRLAVYQAGAREGAERGLSAIRERLGDRLDEVKEQVAAKLEEQAQQIRLQAEAFQARLKPLVEDMQRQWAGLVEKVQAAVGTSAAPVPSDNH
notes: Discoidal lipoprotein particle with POPC; Engineered truncation variant of APOE3; also called PP11/POPC
Work on B6 yielded a Kd [2] of roughly 0.125 nM.

B7: PP129: novel truncated apolipoprotein variant SEQ ID NO: 881 (protein)
chain: KVEQAVETEPEPELRQQTEWQSGQRWELALGRFWDYLRWVQTLSEQVQEELLSSQVTQELRALMDETMKELKAYKSELEEQLTPVAEETRARLSKELQAAQARLGADMEDVCGRLVQYRGEVQAMLGQSTEELRVSLASHLRKLRKRLLRDADDLQKRLAVYQAGAREGAERGLSAIRERLGDRLDEVKEQEAAKLEEQAQQIRLQAEAFQARLKPLVEDMQRQWAGQVEKVQAAVGTSAAPVPSDNH
With B7 the “Rate of DMPC clearance Ka” value [1] was 0.0068 s⁻¹.

B8: LPS3 lipoprotein system (PP11 with POPC, polypeptide:lipid 1:90) (other)
chain: KVEQAVETEPEPELRQQTEWQSGQRWELALGRFWDYLRWVQTLSEQVQEELLSSQVTQELRALMDETMKELKAYKSELEEQLTPVAEETRARLSKELQAAQARLGADMEDVCGRLVQYRGEVQAMLGQSTEELRVRLASHLRKLRKRLLRDADDLQKRLAVYQAGAREGAERGLSAIRERLGDRLDEVKEQVAAKLEEQAQQIRLQAEAFQARLKPLVEDMQRQWAGLVEKVQAAVGTSAAPVPSDNH
notes: Discoidal lipoprotein particle with POPC at 1:90 mol/mol; also called PP11/POPC
For B8, the “fold difference in KD” value [3] was no more than 5 fold.

B9: PP126: novel truncated apolipoprotein variant SEQ ID NO: 878 (protein)
chain: KVEQAVETEPEPELRQQTEWQSGQRWELALGRFWDYLRWVQTLSEQVQEELLSSQVTQELRALMDETMKELKAYKSELEEQLTPVAEETRARLSKELQAAQARLGADMEDVCGRLVQYRGEVQAMLGQSTEELRVRLASHLRKLRKRLLRDADDLQKRLAVYQAGAREGAERGLSAIRERLGDRLDEVKEQVAAKLEEQAQQIRLQAEAFQARLKPLVEDMQRQWAGLVEKVQAAVGTSAAPVPSDNH
For B9, the “Rate of DMPC clearance Ka” value [1] was 0.0383 s⁻¹.

B10: PP127: novel truncated apolipoprotein variant SEQ ID NO: 879 (protein)
chain: KVEQAVETEPEPELRQQTEWQSGQRWELALGRFWDYLRWVQTLSEQVQEELLSSQVTQELRALMDETMKELKAYKSELEEQLTPVAEETRARLSKELQAAQARLGADMEDVCGRLVQYRGEVQAMLGQSTEELRVRLASHLRKLRKRLLRDADDLQKRLAVYQAGAREGAERGLSAIRERLGDRLDEVKEQEAAKLEEQAQQIRLQAEAFQARLKPLVEDMQRQWAGLVEKVQAAVGTSAAPVPSDNH
For B10, the “Rate of DMPC clearance Ka” value [1] was 0.0058 s⁻¹.

B11: PP128: novel truncated apolipoprotein variant SEQ ID NO: 880 (protein)
chain: KVEQAVETEPEPELRQQTEWQSGQRWELALGRFWDYLRWVQTLSEQVQEELLSSQVTQELRALMDETMKELKAYKSELEEQLTPVAEETRARLSKELQAAQARLGADMEDVCGRLVQYRGEVQAMLGQSTEELRVSLASHLRKLRKRLLRDADDLQKRLAVYQAGAREGAERGLSAIRERLGDRLDEVKEQEAAKLEEQAQQIRLQAEAFQARLKPLVEDMQRQWAGLVEKVQAAVGTSAAPVPSDNH
With B11 the “Rate of DMPC clearance Ka” value [1] was 0.0149 s⁻¹.

B12: LPS2: lipoprotein system of PP10 and POPC, apolipoprotein:lipid 1:100 (other)
chain: KVEQAVETEPEPELRQQTEWQSGQRWELALGRFWDYLRWVQTLSEQVQEELLSSQVTQELRALMDETMKELKAYKSELEEQLTPVAEETRARLSKELQAAQARLGADMEDVCGRLVQYRGEVQAMLGQSTEELRVRLASHLRKLRKRLLRDADDLQKRLAVYQAGAREGAERGLSAIRERLGDRLDEVKEQVAEVRAKLEEQAQQIRLQAEAFQARLKSWFEPLVEDMQRQWAGLVEKVQAAVGTSAAPVPSDNH
notes: Discoidal lipoprotein particle with POPC; Engineered truncation variant of APOE3; also called PP10/POPC
Molecule B12 has a Kd [2] of roughly 0.385 nM.

B13: LPS2 lipoprotein system (PP10 with POPC, polypeptide:lipid 1:100) (other)
chain: KVEQAVETEPEPELRQQTEWQSGQRWELALGRFWDYLRWVQTLSEQVQEELLSSQVTQELRALMDETMKELKAYKSELEEQLTPVAEETRARLSKELQAAQARLGADMEDVCGRLVQYRGEVQAMLGQSTEELRVRLASHLRKLRKRLLRDADDLQKRLAVYQAGAREGAERGLSAIRERLGDRLDEVKEQVAEVRAKLEEQAQQIRLQAEAFQARLKSWFEPLVEDMQRQWAGLVEKVQAAVGTSAAPVPSDNH
notes: Discoidal lipoprotein particle with POPC at 1:100 mol/mol; also called PP10/POPC
In the case of B13, the “fold difference in KD” value [3] is reported as no more than 5 fold.

Reference: US20250319190A1, “APOE LIPOPROTEIN SYSTEMS” (Kisbee Therapeutics, Inc., priority 2022, published 2025)
